# Assay results: the DeepSol protein solubility set
# Assay: soluble on expression in E. coli; label from the status in PepcDB or PDB records
row,Sequence,soluble on expression in E. coli
1,MEEEHEEESHLSQSDTVGSAIVEDGPGKEYEIYIKNEELVDKLKLLNYEDGFLKLGVVYKPILKHYFVKSKNVGEQFFLFTSLAAWLIKKSGDESYNMPQEFDDPNSTLANIMAAAKNKGIATDFTAAKLKSGAGENVIFILNSLADASLVHVGFQWQKMIPPKEEDEDTAVDEQDEDDDNDDIVEEPMNFLDDDDDDNVIEIDLKAQGLATESKNPLQSVLQSNTDAITWKQEVERVAPQLKITLKQDAKDWRLHLEQMNSMHKNVEQKVGNVGPYLDNMSKDIAKALERIASREKSLNSQLASMMSKFRRATDTRAELREKYKAASVGVSSRTETLDRISDDIEQLKQQIEEQGAKSSDGAPLVKIKQAVSKLEEELQTMNVQIGVFEQSILNTYLRDHFNFSANLLNIM,soluble
2,RTGAELLALTTSTGKSIAQLMWDNERAWHTEAETRTGLLKIWDVMQSCVARGCGIGNPDADGTLPGPFQVKRRAPQLYRALTGNPERALQDPLSMVDWINLYAIAVNEENAAGGRVVTAPTNGAAGIIPAVLHYYTRFTPGANEQGVIDFLMTAAAIGILYKLNASISGAEVGCQGEVGVACSMAAGALAAVLGGTPQQVENAAEIGMEHNLGLTCDPVGGMVQIPCIERNAMASVKAVNAARMALRGDGSHYVSLDSVIKTMRETGADMKTKYKETSRGGLAVN,not soluble
3,MKKALTTRHPPIDVYCICREVTEVMEKLHAADAETIPLASNIQMVNMVNNYVIMSYGLLHDDYEYGAITESCRKDVLLLLRELFPRKIYLWEN,soluble
4,MSLSRRPAYARLLDRAVRILAVRDHSEQELRRKLAAPIMGKNGPEEIDATAEDYERVIAWCHEHGYLDDSRFVARFIASRSRKGYGPARIRQELNQKGISREATEKAMRECDIDWCALARDQATRKYGEPLPTVFSEKVKIQRFLLYRGYLMEDIQDIWRNFADEGHHHHHH,soluble
5,MGGIFSKKEKSPKSAPVSDQDNAILALKTQRDKMKQMIKRKENCLEKERQLAKQLIKDGRKDRALLLLKKKRYQEKIIDQTLNHLSKIEQMVNDLEFAEVQQRVTDGLRQGNEALKKMNQLFDIDEIDRIMEETKEAAEYQEEISNMLSGQLSNTDVSDVEKELEDLLAAEWGTVQLPEAPSHELPEAERERQKEKEKPRREKIALEA,not soluble
6,MAHHHHHHMRNVVQKYLCRKNNFPGFCSKRNVCTLSQKKNLSAYKIYTDGLLHSEFSTELKTTNEVNRLPIFRVLDTEGNLLDGHNAPFEEEEIVKLYKQMVEFSIWDEIFYGIQRQGRISFYIVNDGEEGIQFGLGKVLTPDDHLYCQYRETGILLSRGFDYADIINQLFGNKYDEGKGRQMCICYTSKKLNIHTITTPLASQLSHAAGCGYALKLKNEKAVAATFCGDGSSSEGDFYAALNFAAVRESQTMFICKNNLYAISTSIKDQYRGDGVAPRALALGIESVRVDGNDLFATYLAAKKMREICTEESKPVFMEFMAYRYGHHSTSDDSSLYRPKEENDAWKKEGVHPISRLFLYLKNKKLYTDKDDELHRKAIKEKVLKELKKHESIKRYNIVGGLFENVYHEEDWNLKEQRESFEQFFKQHKGCYDTSKFEG,not soluble
7,MSLKLIASDMDGTLLDAKMSITNDNASAIREAERLGIEFMVATGRAYTEAKPALEEAGIDCAMITLNGAQVFDKDGHSLFTAGIEKETVTEVLTILSQHNVYYEISTNKGIFSEHQEKRIENFAAHIAESMPHLTYKVAIAMASAHLSLLHITYVDRLDDILKDDSIEVLKIIGFSMDGPKVLGPAGMEVEELDDLVVTSSALNNIEINHRLAQKGIAVARVAKERGIPAEQVMTIGDNLNDVSMIQWAGVSFAMGNAELELKEYAKYETATNLENGVGEAILRAIREDEGHHHHHH,soluble
8,MGSDKIHHHHHHMIDKLEFFIALAKEEHFGRAAEACGVTQPTLSAGIKQLEGQLGVMLVNRGSRFQGLTPEGKQVLVWARRIVGDSRSMREEMRAARHGLSGRIRIAAIPTALAMVARLTTPFREKHPGVTFSVLSRTSIEVLSLLGNFDIDAGITYLDNEPLGRVTSVPLYDERYQLITAVGNPYSDRDKVTWAEISRLPLCLLTPDMQNRRIIDQHLAEAGVQVRPTLESNSMIVLFSHIRTGKWSSIMPLNLAETFGFSEPIRAIPIVEPDASHTVGLVAAPREPHTPLVQALLDEAMALADDFRAHR,not soluble
9,MLPQRLKKAITDNPKKLGNLIDLVNLPSTLRNFVGQSQISRLGCFMRVWSYIKTNNLQDPKNKNVVICDEKLKSILLGKQRVELVDLPSLIKLHFPKEQKKNSQKI,not soluble
10,MSNRVVIDHIGASGHGISNISHDSLSVPFTLPGEVAIVALRGKYGKLIALEKKSSERIDAICQHFENCGGCVLQHWHADAYRSWKRQLVIDALKRYGIDVFVSPLIEGGYQNRRRITLTALATQKGHIVGFNRYLSHDVIALEECPVTRLEIMSKLNSIKLLCALVGNHTKRFQVTVTSVENGLDVAFNGCVVRDEHIRQQMIHTALAYGMTRLSVEGEILVEREKPLVYFGDVCVEFPAGGFLQATFEAENIMGNIILAYLEKAKNAVDLFSGLGTFTLRMAKKMNVHAVENNETALANLDRAARFATGLKTITCERRDLFRRPLSAKELSCFECVVFDPPRAGAQEQVRELAKTTIPRVVTISCNPVTFARDLSLLVAGGYTIEKIIPIDQFLWSPHVEIVALLSKRKIKANWKL,not soluble
11,GTTKISVPVPPPDANFPPSAAPVFYNPEMELNRDINVAATAAFVERLLSKKDILREEIRYVDAFSASGIRGLRIAGEVGIHSTMNDWSHEAFELIKENIKINGLEEKAQATRRNANVLLHEQRFHIVDVDPFGTPSPYLDAAASSAYSMLSVTATDTAPLCGAHLNSGIRKYASVPLNTEYHSEMGLRVLLGACARELAKHEKGMLPLLSHVTRHYVRTYLEVLPGSRKADKTLKSMGFVAHCPRCGFRKPVYGLAVHIEKECPECGGLTKIAGPLWLGPYREPEFCNEVISELEAHPLNTKEKVRKIITFCRDELDIPMFYDQHVICKELGASATGIESLIEALRAGGFEASRTHFTGTSFKTDAPIAEIKKIILALSG,not soluble
12,MSHPWRSRGEKRTIMFGYTPSDTILKYLKDMRDLINRAILNAYSIARSNDDSLPSPITLRRSLKDYYDNNVAYAKHHINPVCRTAIAMLRSYKKNNGRLKVVKAKRLAMRIDSELAKIEDNRLRITIRPNVYEYVDIVDRNKKYSEYSKYPISEVLLTDNRVYITFITGSDDKPVIANNIIGFDLNFKSVDYTVIKDNRIAYVDSIDTYDIAKTQRDYERKRRKIQKHIRNPAKRIRKLKEAKHRQRNIVRDKLQKLTTNIVKNNEDKTFVFEDLTNIKKKGKKHKDHKRDGQSSKRFRTDINRWPYRLFQMFVEYKSKNETLYVDPEGTSSECPVCGGILEHPIWKMSKCDNCGATFDRDRLSSLSIAVRGLHLCGTPFSVSGSASWDSMKDNYLYRLEHHHHHH,soluble
13,MKKRYLVLTALLALSLAACSQEKTKNEDGETKTEQTAKADGTVGSKSQGAAQKKAEVVNKGDYYSIQGKYDEIIVANKHYPLSKDYNPGENPTAKAELVKLIKAMQEAGFPISDHYSGFRSYETQTKLYQDYVNQDGKAAADRYSARPGYSEHQTGLAFDVIGTDGDLVTEEKAAQWLLDHAADYGFVVRYLKGKEKETGYMAEEWHLRYVGKEAKEIAASGLSLEEYYGFEGGDYVD,not soluble
14,MGSDKIHHHHHHMRIEVVNVSHIFHRGTPLEKKALENVSLVINEGECLLVAGNTGSGKSTLLQIVAGLIEPTSGDVLYDGERKKGYEIRRNIGIAFQYPEDQFFAERVFDEVAFAVKNFYPDRDPVPLVKKAMEFVGLDFDSFKDRVPFFLSGGEKRRVAIASVIVHEPDILILDEPLVGLDREGKTDLLRIVEKWKTLGKTVILISHDIETVINHVDRVVVLEKGKKVFDGTRMEFLEKYDPRFFTSKMLVMRRLVLKGEDPFSMSDDELLERVCNS,not soluble
15,MTKEQIQIIKDCVPILQKNGEDLTNEFYKIMFNDYPEVKPMFNMEKQISGEQPKALAMAILMAAKNIENLENMRSFVDKVAITHVNLGVKEEHYPIVGACLLKAIKNLLNPDEATLKAWEVAYGKIAKFYIDIEKKLYDK,soluble
16,MGSDKIHHHHHHMSAALSCGTIHGVGLGPGAPDLLSVRSDRLVRGARHVAYFRKAGRPGQARRIVEGMLRPDVIEIPMEYPVTTEIPLSDPRYNDCLSAFYAECTQRLVMLAQAGEDVVVLCEGDPFFYGSFMHLHTRLAGTVPVAVVPGITGMAGAWNATGIPITWGDDVLTIAMATLPEDELVRRIRDTDALVVMKIGRNLPKLRRAVAAAGREDAAWLVEHAAMPGQRVTRLIEAETVTPYFSILLIHGQGRRP,not soluble
17,MSNEIYTAITIGPICKTLDKARSVKSFWTASYLFSWIMRELLERLPKEERPEGSFEVLSPHRDGKDVPEETSKKVGLFPDRLFAKGELEEEKLQEIKGKIFIELAEKFKNAFQDEKDGITRKIDTESDPKRKRELEEIQSRYSNAALKGEDIRKYLENYLSISCITVELSSDCNILEQLNSYLDTQELFNKASIQTDEDYMELFIEAPNNPFLKAYSQDRAFPSTSEIAVSGWEQDPPKDENGEVEYTQLTSKPGFRNCYKYLAVIKADGDGFGTYIKELKVDEEKEIKENGEKENELSRFTKSFFEFSVEVANELIQKTKAIPVYIGGDDLFLFAPVLEGNVEKDVFNLIKEIDDLFIQKEIGEGLSMSYGVSIFYYKSPMSEAIDIADSMLRKAKEEKEEKEKKKDTVAISIQKHSGQKIEFLLPCKHSTDKCKQETGLYKKATELIRAFKEDDSMLNSLIYWIEDMYETIFTDEVTLYQERINAVFDNFFDEEIHKENEVFFDLLKKFIHSMHHSEDTPRKLKDKKKLLHGILRYCQFVTAKKEK,not soluble
18,GNIEAALFGLIALYAQTKVIDSIIYGGDAGSMATIVTGNPDGIAAKVIYELDRTATVLPAKGAYSRKDTSVLLCTVRKSQFVKLKRIVYEEDPDAFVMVTETSEVLGLGFRAFKDSL,not soluble
19,MAALVDLVNFQLENAKALSTVLRQETQAITARVSSEIESIAKRKMTLIDQLRTTDQRIASHPHVNQLTEDEHLSQVVAQIQSIVLDCQQVNRVNGESLSRAQLSFNKLNNMLQHTHGKIGMTYNAGGKTHTISTLGTNIKA,not soluble
20,MGSDKIHHHHHHMIKAMYSGVSGMKANQTKLDVIGNNVANAGTTSFKKSSARITDSFYQTVLYASAPTAALGGTNLGQVGVGSKISSINKDMVQGNVQPTNRPSDLMIDGDGYLPVVRQGTVMYTRDGSFNLDTGFKAADGALKNIKGGRLVNGDGYMLQGMIYDGEYKADTGEFVKKGDAKGKEPIVIPLQSISPKDGTVQNVLEYNISKDGTVEFLLSDGQRTQFVYDIPDGAKVGDTPAGIDKLKGTIQKVQIYAFQNPAGLDAAGGNLFKPSANSGDPQIAGATGTIIQGAIEASNVDIAEEFTEMIIASRSFQANSKIISTSDEILQEIINLKR,not soluble
21,MGSDKIHHHHHHMPRPRRSQVSVEDTPMYHCCSRVVRRAYLCGDDKFSGKNYDHRRGWVEAQLLKLAEVFAIDVAAYAVMSNHLHVVLSIDIYQANRWTGIEVINQWHLLFKGTDITQKFAKGETLEDYEALELTYTIALYRSRLSDISWFMRALNEPIARRANEEDECTGRFWEGRFKSQALLDEAAVLACMVYVDLNPIRSTIAKTPETSDFTSIKRRITAALNGTQPKALLPFVGNERKDMPKGLTFHLKDYLQLVEDTGKAVRNDKRGCISPNSHSILNRLNIPADNWLKIINEFGKLFKGPVGTLQELTAYCEHLEKQRRHYCHACQHLAAS,not soluble
